These results are taken from patent US20130217572A1, “SPECIFIC DELIVERY OF AGROCHEMICALS” (VRIJE UNIVERSITEIT BRUSSEL, priority 2010, published 2013).

To fix the notation:
T1: potato lectin (Sigma) (potato, UniProt Q9S8M0 23-323)
T1 construct: Bought glycoprotein, coated on ELISA plates
T1 sequence (looked up): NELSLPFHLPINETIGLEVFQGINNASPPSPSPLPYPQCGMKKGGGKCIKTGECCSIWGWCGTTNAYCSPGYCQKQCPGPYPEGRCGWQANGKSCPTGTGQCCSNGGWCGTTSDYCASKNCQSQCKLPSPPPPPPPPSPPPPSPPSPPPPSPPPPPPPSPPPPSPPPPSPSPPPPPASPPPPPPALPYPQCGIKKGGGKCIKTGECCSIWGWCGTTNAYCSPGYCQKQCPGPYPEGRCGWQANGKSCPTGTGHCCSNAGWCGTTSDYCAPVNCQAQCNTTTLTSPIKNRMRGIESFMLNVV

T2: potato lectin (Solanum tuberosum, UniProt Q9S8M0)
T2 sequence (Q9S8M0 23-323): T1 sequence (looked up)

B1: VHH 5D4 (VHH)
VHH: QVQLQESGGGLVQPGGSLRLSCAASGFDMRRFGIGWFRQVAGKEREGVSCSNVHDGTTYYTNDVKGRFTIVRDNTKNMLYLQMNKLRPEDTAVYSCATTDCEATAWGTYRGYFGQGTQVTVSS
notes: Hexahistidine-tagged
B2: VHH 5C4 (VHH)
VHH: QVQLQESGGGLVQPGGSLRLSCAASGFSLRYFGIGWFRQVAGKEREPVSCSNVRDGNTYYADSVKGRFTISRDNVRNTLYLQMNSLKPEDTAVYSCATTDCEATTWGTYRGYFGQGTQVTVSS
notes: Hexahistidine-tagged
B3: VHH 5G5 (VHH)
VHH: B2 VHH with V40A, P47G, V48I, T78M, S85N, E89D
notes: Hexahistidine-tagged
B4: VHH 7D2 (VHH)
VHH: QVQLQESGGGLVQPGRSLKVACAAAGFSLRYYGIGWFRQAPGKEREAVSCTSANDGSTYYRDSVRGRFTISRDDGKNTVYLQMNRLKPEDTAVYYCATTDCDATSWGTWINYYGQGTQVTVSS
notes: Hexahistidine-tagged
B5: VHH5E5: plant-binding VHH, listed among SEQ ID NO:1-42 (protein, listed as Lama glama)
VHH: QVQLQESGGGLVQPGGSLTLSCTASGFAMRRFGIGWFRQVVGKEREGVSCSNVHDGSTYYANYVKGRFTIVRDDTKNMLYLHMNSLRAEDTGVYSCATTDCEATAWGTYRGYFGQGTQVTVSS
modifications: 5E5
B6: VHH7A2: plant-binding VHH, listed among SEQ ID NO:1-42 (protein, listed as Lama glama)
VHH: QVQLQESGGGSVHPGGSLTLSCLASGFSLSNYGMGWFRQAPGKEREAVSCTSVPNGHIYYAESVKGRFTIVRDNAGNSVYLQMNSLKPEDAANYFCATTDCEAAHWGTWVNYYGQGTQVTVSS
modifications: 7A2
B7: VHH7C2: plant-binding VHH, listed among SEQ ID NO:1-42 (protein, listed as Lama glama)
VHH: QVQLQESGGGLVQPGGSLRLSCAAFGFALANYGIGWFRQAPGKDRERVSCDSVDDGSTHYSNSVQGRFTIIRDNAKNTVFLQMNSLKAEDTAVYYCATTDCDATTWGTWINYRGQGTQVTVSS
modifications: 7C2
B8: VHH5F5: plant-binding VHH, listed among SEQ ID NO:1-42 (protein, listed as Lama glama)
VHH: QVQLQESGGGLVQPGGSLRLSCAASGFPLGLYGIGWFRQAPGKEREAVSCDSVDDGSTNYLDSVKGRFTISRDNAKNMVYLQMNSLKPEDTAVYYCATTDCDAKAWGTWTNYRGQGTQVTVSS
modifications: 5F5

Residue numbers refer to the chain shown, from its start.

In one experiment the test system is gum arabic. The experiment in a line: VHH binding to gum arabic in ELISA. The settings on record: Table 2; gum arabic coat; VHH 3 μg/ml. Set-up: species or system acacia tree. As to the method:
Titration of VHH antibody fragments was performed on ELISA plates (Maxisorp, Nunc) coated with 100 μl per well 100 μg/ml gum arabic in 50 mM carbonate pH9.6. Plates were coated at 4° C. overnight and coating was continued at room temperature for 1 hour on the next day. Plates were washed three times with PBS/0.05%-TWEEN®-20 and blocked with 5% skimmed milk in PBS for 1 hour. Four-fold serial dilutions of purified VHH antibody fragments were prepared in 1% MPBS/0.05%-TWEEN®-20 in polypropylene 96-well plates. Antibody concentrations ranged from 3 μg/ml to 12 ng/ml. Antibody dilutions were transferred to the gum arabic-coated plates and VHH antibody fragments were allowed to bind for 1 hour at room temperature. Bound VHH were detected with sequential incubations with monoclonal mouse anti-histidine antibodies (Abd Serotec) and rabbit anti-mouse IgG whole molecule antibodies conjugated with alkaline phosphatase (RaM/AP) (Sigma) in 1% MPBS/0.05%-TWEEN®-20. Unbound antibodies were removed by washing three times with PBS/0.05%-TWEEN®-20 after each antibody incubation. The plates were washed an additional two times with PBS and 100 μl pNPP disodium hexahydrate substrate (Sigma) was added to each well. The absorbance at 405 nm was measured and plotted as function of antibody concentration (see Table 1).
B1: the “absorbance at 405 nm” value is listed as 0.530.
With B2, the “absorbance at 405 nm” value amounted to 0.873.
Still for that read-out and setting: as for B3, the figure is 0.751; as for B4, 0.274.

The experiment is the same for the next values; noted with them: [VHH] 0.0117188 μg/ml (0.78125 nM); gum arabic 100 μg/ml.
B1: the “absorbance at 405 nm” value is 0.087.
For the molecule B5, the “absorbance at 405 nm” value was 0.074.
As to B6, the “absorbance at 405 nm” value is recorded as 0.088.
For the molecule B7, the “absorbance at 405 nm” value is listed as 0.088.
B2: the “absorbance at 405 nm” value is reported as 0.166.
In the case of B3, the “absorbance at 405 nm” value came out at 0.125.
Same read-out and setting: as for B4, the figure is 0.083; as for B8, 0.093.

The experiment is the same for the next values; noted with them: [VHH] 0.04688 μg/ml (3.125 nM); gum arabic 100 μg/ml.
Turning to B1, the “absorbance at 405 nm” value was 0.134.
Consider B5, for which the “absorbance at 405 nm” value came out at 0.088.
On the same count and under the same terms, as for B6, the figure is 0.101; as for B7, 0.092; as for B2, 0.386.
Still for that read-out and setting: as for B3, the figure is 0.317; as for B4, 0.136.
Same read-out and setting: with B8 the figure was 0.100.

The same experiment, now with this note: [VHH] 0.1875 μg/ml (12.5 nM); gum arabic 100 μg/ml.
As to B1, the “absorbance at 405 nm” value was determined as 0.378.
Same read-out and setting: with B5 the figure was 0.185; with B6, 0.216.
On to B7, for which the “absorbance at 405 nm” value is 0.090.
The same measure, in the same setting: with B2 the figure was 1.036; with B3, 0.906; with B4, 0.347.
The same measure, in the same setting: with B8 the figure was 0.191.

The same experiment, now with this note: [VHH] 0.75 μg/ml (50 nM); gum arabic 100 μg/ml.
With B1, the “absorbance at 405 nm” value is 0.840.
Still for that read-out and setting: with B5 the figure was 0.569; with B6, 0.677.
The same measure, in the same setting: as for B7, the figure is 0.194; as for B2, 1.710; as for B3, 1.611.
Still for that read-out and setting: with B4 the figure was 0.906; with B8, 0.476.

Still in this experiment, the particulars now being: [VHH] 3 μg/ml (200 nM); gum arabic 100 μg/ml.
Regarding B1, the “absorbance at 405 nm” value was 1.280.
For the molecule B5, the “absorbance at 405 nm” value worked out at 1.194.
The same measure, in the same setting: as for B6, the figure is 1.391.
Still for that read-out and setting: as for B7, the figure is 0.461.
Same read-out and setting: with B2 the figure was 2.010; with B3, 1.966; with B4, 1.427.
Regarding B8, the “absorbance at 405 nm” value stood at 0.959.

Staying with this experiment, now noted: [VHH] 3 μg/ml (200 nM); no gum arabic coat (−).
Consider B1, for which the “absorbance at 405 nm” value came to 0.075.
As for B5, the “absorbance at 405 nm” value is listed as 0.073.
Still for that read-out and setting: with B6 the figure was 0.075.
Regarding B7, the “absorbance at 405 nm” value is on record as 0.077.
On the same count and under the same terms, with B2 the figure was 0.082; with B3, 0.077; with B4, 0.074.
Consider B8, for which the “absorbance at 405 nm” value is on record as 0.090.

A further experiment has as its system potato leaf surface. The experiment in a line: VHH binding to leaf discs (microscopy). The settings on record: 5 μg/ml in PBS, anti-histidine Alexa-488 detection. Set-up: species or system potato (variety Désirée). The procedure: VHH binding to non-fixed leaf discs of potato (variety Désirée), black nightshade, grass, wheat or azalea was investigated. For comparison, binding of CBM3a to non-fixed leaf discs of potato (variety Désirée) was analyzed in parallel. Leaf discs were prepared by punching a fresh potato leaf with a 5 mm belt hole puncher tool. Leaf discs were put immediately in wells of a 96-well plate containing 200 μl per well 5% MPBS or PBS, and incubated for 30 minutes. Leaf discs were transferred to solutions containing 5 μg/ml VHH antibody fragment, respectively 5 μg/ml CBM3a in 2% MPBS or PBS and incubated for 60-90 minutes. Unbound VHH or CBM3a proteins were removed by washing three times with 2% MPBS or PBS. Bound VHH or CBM3a proteins were detected with incubation with monoclonal mouse anti-histidine antibodies directly conjugated with Alexa-488 fluorescent dye (Abd Serotec) in 1% MPBS for 1 hour. Unbound antibodies were removed by washing three times with PBS. Leaf discs were put on glass slides, covered with cover slips, and analyzed by microscopy or on a macrozoom microscope system (Nikon) or a SP5 confocal microscope system (Leica).
B1: the “binding to native potato leaf surface” value was “binding leaf surface, stomata, glandular trichomes, and leaf hairs”.

The experiment is the same for the next values; noted with them: 5 μg/ml in PBS, anti-histidine Alexa-488 detection, listed as 5D4.
Take B1: the “binding to native potato leaf surface” value was “clearly binding to trichomes, stomata and cuticle”.

The next experiment has as its target T1, potato lectin (Sigma). The experiment in a line: ELISA, potato lectin coated at 100 ug/ml, VHH at 3 ug/ml, anti-histidine detection.
Conditions: not given
As to the method: (§1) ELISA plates (Maxisorp, Nunc) coated with 100 μl per well 100 μg/ml potato lectin (Sigma) in PBS were coated at 4° C. overnight and coating was continued at room temperature for 1 hour on the next day. Plates were washed three times with PBS/0.05%-TWEEN®-20 and blocked with 5% skimmed milk in PBS for 1 hour. VHH (3 μg/ml) were transferred to the potato lectin-coated plates and VHH antibody fragments were allowed to bind for 1 hour at room temperature. Bound VHH were detected with sequential incubations with monoclonal mouse anti-histidine antibodies (Abd Serotec) and rabbit anti-mouse IgG whole molecule antibodies conjugated with alkaline phosphatase (RaM/AP) (Sigma) in 1% MPBS/0.05%-TWEEN®-20. Unbound antibodies were removed by washing three times with PBS/0.05%-TWEEN®-20 after each antibody incubation. The plates were washed an additional two times with PBS and 100 μl pNPP disodium hexahydrate substrate (Sigma) was added to each well and the absorbance at 405 nm was measured (see Table 2).
On the technique in general: ELISA stands for enzyme-linked immunosorbent assay.
On to B1, for which the “absorbance at 405 nm” value was 4.
Same read-out and setting: as for B2, the figure is 4; as for B3, 4.
Still for that read-out and setting: as for B4, the figure is 4.

The target in a further experiment is T2, potato lectin. Description: VHH binding to potato lectin in ELISA. The settings on record: blank wells; VHH 3 μg/ml. As to the method:
as §1
B1: the “absorbance at 405 nm” value is reported as 0.072.
The same measure, in the same setting: as for B2, the figure is 0.071.
The same measure, in the same setting: with B3 the figure was 0.073; with B4, 0.072.
